Experimental data published in the nanobody polyreactivity screen of Harvey et al. (2022).

Experiment: yeast display, Sf9 membrane polyspecificity reagent, FACS + sequencing; frameworks hold sequencing errors
Procedure, shortened: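 Genes from sorted yeast were amplified by colony PCR, read by MiSeq 2 × 250 sequencing and filtered on CDR length. These cells carried a synthetic nanobody library in Saccharomyces cerevisiae BJ5465 and were sorted by FACS into low and high (top ~1%) gates on anti-HA and streptavidin fluorescence. Polyreactivity is labelled according to the gate of origin.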

Sequence	polyreactivity (PSR sort gate)
QVQLVESGGGLVQAGGSLRLSCAASGSTFPSNAMGWYRQAPGKERELVAAIRGRGGSTYYADSVKGRFTISRDNAKNTVYLQMNSLKPEDTAVYYCAKKVRSYVRWEYDYWGQGTQVTVSS	low polyreactivity
QVQLVESGGGLVQAGGSLRLSCAASGSTFPSNVMGWYRQAPGKERELVAAITWSGGRTYYADSVKGRFTISRDNAKNTVYLQMNSLKPEDTAVYYCAVRSSYVRYDYWGKGTQVTVSS	high polyreactivity
QVQLVESGGGLVQAGGSLRLSCAASGSTFPSYAMGWYRPAPGKERELVAAINSGGGTNYADSVKGRFTISRDNAKNTVYLQMNSLKPEDTAVYYCAKSRYEYTKTEGGYWGQGTQVTVSS	low polyreactivity
QVQLVESGGGLVQAGGSLRLSCAASGSTFPSYAMGWYRQAPGKERELVAAINSGGGTNYADSVKGRFTISRDNAKNTVYLQMNSLKPEDTAVYYCAKSRYDYNKTEGGYWGQGTQVTVSS	low polyreactivity
QVQLVESGGGLVQAGGSLRLSCAASGSTFPSYTMGWYRLAPGKERELVAAITLSGGSTYYADSVKGRFTISRDKAKNTVSLQMNSQKPEDTAVYYCAAYSQRGYDYWGQGTQVTVSS	low polyreactivity
QVQLVESGGGLVQAGGSLRLSCAASGSTFPTNAMGWYRQAPGKERELVATITSTGSTKYADSVKGRFTISRDNAKNTVYLQMNSLKPEDTAVYYCAADEYAYASRFYWALIHDYWGQGTQVTVSS	low polyreactivity
QVQLVESGGGLVQAGGSLRLSCAASGSTFPTYAMGWYRQAPGKERELVAAISRSGGRTYYADSVKGRFTISRDNAKNTVYLQMNSLKPEDTAVYYCAAQYRLSGGYNYDYWGQGTQVTVSS	high polyreactivity
QVQLVESGGGLVQAGGSLRLSCAASGSTFPVNAMGWYRQAPGKERELVATIRWTGGGTYYADSVKGRFTISRDNAKNTVYLQMNSLKPEDTAVYYCAADPPWEWSDYGYDYWGQGTQVTVSS	low polyreactivity
QVQLVESGGGLVQAGGSLRLSCAASGSTFPVNTMGWYRQAPGKERELVAAISSDDNTNYADSVKGRFTISRDNAKNTVYLQMNSLKPEDTEVYYCAVKGHPAYVEVPPRYAWEFDYWGQGTQVTVSS	low polyreactivity
QVQLVESGGGLVQAGGSLRLSCAASGSTFPVYVMGWYRPAPGKERELVAAITRSGGSTYYADSVKGRFTISRDNAKNTVYLQMNSLKPEDTAVYYCNKDVWDGYDWPEFDYWGQGTQVTVSS	low polyreactivity
QVQLVESGGGLVQAGGSLRLSCAASGSTFPWYAMGWYRQAPGKEREVVAAISSSGGSTYYADSVKGRFTISRDKAKNTVYLQMNSLKPEDTAVYYCNAQHPGYYWGYDYWGQGTQVTVSS	high polyreactivity
QVQLVESGGGLVQAGGSLRLSCAASGSTFPYNAMGWYRQAPGKERELVAAITWRAGRTYYADSVKGRFTISRDNAKITVYLHMNSLKAEDTAVYYCAKSYQRGVNHYEYWGQGTQVTVSS	high polyreactivity
QVQLVESGGGLVQAGGSLRLSCAASGSTFPYNAMGWYRQAPGKERELVASISRRGGSTYYADSVKGRFTISRDNAKNTVYLQMNSLKPEDTAVYYCNASGGPYRYYYWGQGTQVTVSS	low polyreactivity
QVQLVESGGGLVQAGGSLRLSCAASGSTFPYNAMGWYRQAPGKEREMVAAITYSGGSTYYADSVKGRFTISRDNAKNTVYLQMNSLKPEDTAVYYCNADDSTTYDYWGQGTQVTVSS	low polyreactivity
QVQLVESGGGLVQAGGSLRLSCAASGSTFPYNTMGWYRQAPGKEREFVAAITGDGGTTYYADSVKGRFTISRDNAKNTVYLQMYSLKPEDTAVYYSAVPYPAEGYGGDYWGQGTQVTVSS	low polyreactivity
QVQLVESGGGLVQAGGSLRLSCAASGSTFPYPYTMGWYREAPGKERELVAVISRTGGSTFYADSVKRRFTISRDNAKNTVYLQMNSLKPEDTAVYYCAARRDGWTFWKYDYWGQGTQVTVSS	high polyreactivity
QVQLVESGGGLVQAGGSLRLSCAASGSTFPYVMGWYTPAPGKERELVAAISQRTGSTYYADSVKGRFTISRDNAKNSVYLQMNILKPEDTAVYYCAKPVYLSPSRYDYWGQGTQVTVSS	high polyreactivity
QVQLVESGGGLVQAGGSLRLSCAASGSTFPYYAMGWYRQAPGKERELVAAISKSGGSTYYADSVKGRFTISRDNAKNTVYLQMNSLKPEDTAVYYCAAGPRYRYYSGWYDYWGQGTQVTVSS	high polyreactivity
QVQLVESGGGLVQAGGSLRLSCAASGSTFPYYAMGWYRQAPGKERELVAAISSSGGSTYYADSVKGRFTISRDNANNTVYLQMNSLKPEDTAVYYCATSSLYRYWHRYDYWGQGTQVTVSS	high polyreactivity
QVQLVESGGGLVQAGGSLRLSCAASGSTFPYYAMGWYRQAPGKERELVAAISSSGSRTYYADSVKGRFTISRDNAKNTVYLQMNSLKPEDTAVYYCAADNAAQPYPAGMDYWGQGTQVTVSS	low polyreactivity
QVQLVESGGGLVQAGGSLRLSCAASGSTFPYYAMGWYRQAPGKERELVAAITSGGSTNYADSVKGRFTISRDNAKNTVYLQMNSLKPEDTAVYYCNAEWRRRYTYLRRVYYGFDYWGQGTQVTVSS	high polyreactivity

Sequence	polyreactivity (PSR sort gate)
QVQLVESGGGLVQAGGSLRLSCAASGSTFQANTMGWYRQAPGKERELVAAISIRGANTYYADSVKGRFTISRDNAKNTVYLQMNSLKPEDTAVYYCNAALRTRRGDYDYWGQGTQVTVSS	high polyreactivity
QVQLVESGGGLVQAGGSLRLSCAASGSTFQFNAMGWYRPAPGKEREFVAAITSSAGRTYYADSVKGRFTISRDNAKKTVYLQMNSLKPEDTAVYYCATGPYSPPSAGPEYDYWGQGTQVTVSS	high polyreactivity
QVQLVESGGGLVQAGGSLRLSCAASGSTFQHYAMGWYRQAPGKERELVAAITHTGGSTYYADSVKGRFTISRDNAKNTVYLQMNSLKPEDTAVYYCATVGRRYGYPGYYWGQGTQVTVSS	low polyreactivity
QVQLVESGGGLVQAGGSLRLSCAASGSTFQPNAMGWYRQAPGKERELVAISSGDDTYYADSVKGRFTISRDKAKNTVYFQMNSLIPEDSAVYYCAAEYSFIYYWGQGTQVTVSS	low polyreactivity
QVQLVESGGGLVQAGGSLRLSCAASGSTFQRYAKGWYRQAPGKEWELVAGITGSVGRTYYADSVKGRFTISRDNAKNTVDLQMNSLKPQATAVSYCAADGRTWLYYGTRRDYWGQGTQVTVSS	high polyreactivity
QVQLVESGGGLVQAGGSLRLSCAASGSTFQRYAMGWYRQAPGKERELVAAITWSGGSTYYADSVKGRFTISRDNAKNTGYLQMNSLKPEDTAVYYGAARSVRYGFGYWGQGTQVTVSS	high polyreactivity
QVQLVESGGGLVQAGGSLRLSCAASGSTFQSYAMGWYRQAPGKERELVAAISARGGTTYYADSVKGRFTISRDNAKNTVYLQMNSLKPEDTAVYYCAVDRAFRAQNYHEYDYWGQGTQVTVSS	low polyreactivity
QVQLVESGGGLVQAGGSLRLSCAASGSTFQSYAMGWYRQAPGKERELVARIRNSGGSTYYADSVKGRFTISRDNAKNTVYLQMNSLKPEDTAVYYCNARYVSRYLTYQYDYWGQGTQVTVSS	high polyreactivity
QVQLVESGGGLVQAGGSLRLSCAASGSTFQTDTMGWYRQAPGKERELVASITWRGGRTYYADSVKGRFTISRDNAKNTVYLQMNSLKPEDTAVYYCAAVTFSYDGYDYWGQGTQVTVSS	low polyreactivity
QVQLVESGGGLVQAGGSLRLSCAASGSTFQTYAMGWSRQAPGKERELVAAITWRGGSTYYADSVKGRFTISRDNAKNTVYLQMNSLKPDDTAVYYCAAKWNGSHDHRAAYESWGQGTQVTVSS	low polyreactivity
QVQLVESGGGLVQAGGSLRLSCAASGSTFQTYAMGWYRQAPGKERELVAAITSGGSTNYADSVNGRFTISRDNAKNTVYLQMNSLKPEDTAVYYCAGRQIYQTSEHRLQYDYWGQGTQVTVSS	low polyreactivity
QVQLVESGGGLVQAGGSLRLSCAASGSTFQVYGMGWYRQAPGKERELVAAISRSGGRTYYADSVKGRFTISRDNAKNTVYLQMNSLKPEDTAVYYCNAPISYYDEYYYWGQGTQVTVSS	high polyreactivity
QVQLVESGGGLVQAGGSLRLSCAASGSTFQWYAMGWNIQAPGKERELVAGITRTGSTYYADSVKGRFTISRDNAKNTVYLQMNSLKPEDTAVYYCAAKWHTASGKYYYWGQVTQVTVSS	high polyreactivity
QVQLVESGGGLVQAGGSLRLSCAASGSTFQWYAMGWYRQAPGKERELVAAISNGVSTNYADSVKGRFTISRDNAKNTVYLHMNSLKPEDTAVYYCAADAYPYYQSYYPFEYLGQGTQVTVSS	low polyreactivity
QVQLVESGGGLVQAGGSLRLSCAASGSTFQYNVMGWYRQAPGKERELVAAITNRDGSTYYADSVKGRFTISRDNAKNTVYLQMNSLKPEDTAVYYCAAPVWLWADRYDSWGQGTQVTVSS	low polyreactivity
QVQLVESGGGLVQAGGSLRLSCAASGSTFQYYAMGGYRQAPGKERELVAGITWRDGNTYYADTVKGRFTISRDNANNTVYLQMNSLKPEDTAVYYCAARRYFVIYYPYDYWGQGTQVTVSS	low polyreactivity
QVQLVESGGGLVQAGGSLRLSCAASGSTFQYYAMGWYRQAPGKDRELVAAIRTGGSTNYAHSVKGRFTISRDNAKNTVYLQMNSLKPDDNAVYYCAKRSLRSYRMNYWGQGTQVTVSS	high polyreactivity
QVQLVESGGGLVQAGGSLRLSCAASGSTFQYYAMGWYRQAPGKERELVAAISYSSGTTYYADSVKGRFTISRDNAKNTVYLQMNSLKPEDTAVYYCARPARYSYPTSTAFDYWGQGTQVTVSS	low polyreactivity
QVQLVESGGGLVQAGGSLRLSCAASGSTFQYYTMGWYRQAPGKERELVAAITRSGGRTYYADSVKGRFTISRDNAKNTVYLQMNSLKPEDTAVYYCAALDSRYSGDDYDSWGQGTQVTVSS	high polyreactivity
QVQLVESGGGLVQAGGSLRLSCAASGSTFRANAMGRYRQAPGKERELVAAINSGGSTYYADSVKGRFTISRDNAKNTVYLQMNSLKPEDTAVYYCNKRYWRSDYWGQGTQVTVSS	high polyreactivity
